Reference: the supplement of paper PMC9732359
± gives the uncertainty stated by the source.

Assay: protein stability index of a GFP-peptide fusion (yeast GPS) (PSI 1-4); higher = more stable; sorted into four equal gates, so the index is relative within each strain
Method in brief: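 Yeast carrying a pooled library were grown to mid-log phase in leucine-free medium. Each library plasmid expresses Cherry and has a tiled 17-residue yeast protein peptide fused downstream of GFP. Cells were sorted into four equal gates by GFP/Cherry ratio, and plasmids from each gate were PCR-amplified, Illumina-sequenced and assigned to strains by barcode. Summing, across gates, the read frequency times the gate number gave each peptide's protein stability index.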

Sequence | protein stability index (doa10∆) | protein stability index (pdr5∆) | protein stability index (san1∆) | protein stability index (ubr1∆)
QDGGIMGSLINGITLAL [SKI6] | 3.11 ± 0.075 | 2.58 ± 0.058 | 2.53 ± 0.057 | 2.66 ± 0.047
NQLTESASHFEQYTKKI [YJL041W/NSP1] | 2.28 ± 0.086 | 2.45 ± 0.065 | 2.76 ± 0.082 | 2.5 ± 0.095
SSTKDYLTPPHECRLRD [RET1] | 3.34 ± 0.12 | 3.22 ± 0.14 | 3.2 ± 0.18 | 3.25 ± 0.16
MTTFYKCVNCGHRWKEN [RPC11] | 2.82 ± 0.16 | 2.66 ± 0.071 | 2.22 ± 0.15 | 2.74 ± 0.071
KSSAFVIDIGASGCNVT [ARP7] | 1.81 ± 0.039 | 2.46 ± 0.063 | 2.17 ± 0.067 | 2.55 ± 0.045
NLNTDKLKNNASRSQLE [YJL039C/NUP192] | 2.22 ± 0.13 | 2.69 ± 0.065 | 2.81 ± 0.11 | 2.69 ± 0.064
LKIIYTGLCSFDYSVIL [YJL039C/NUP192] | 1.73 ± 0.081 | 1.5 ± 0.057 | 1.6 ± 0.11 | 1.59 ± 0.071
SSGFNEDIVGALRRRVG [REC8] | 1.17 ± 0.085 | 1.16 ± 0.055 | 1.44 ± 0.26 | 1.11 ± 0.11
NLLVLRGKNEIIQNAQR [RPO21] | 1.56 ± 0.11 | 1.41 ± 0.092 | 1.69 ± 0.16 | 1.26 ± 0.085
STVSGELNDNPAWFNNP [YMR153W/NUP53] | 3.36 ± 0.086 | 3.47 ± 0.056 | 3.29 ± 0.044 | 3.35 ± 0.049
IELLCGLGKSAVNWQDK [NAS6] |  |  | 3.75 ± 0.086 | 
QLNEERSRYRREIDALK [YIL149C/MLP2] | 3.44 ± 0.092 | 3.25 ± 0.065 | 3.24 ± 0.045 | 3.25 ± 0.035
DLVLQILEDTATMSVFL [RRI2] | 2.86 ± 0.063 | 2.36 ± 0.055 | 2.98 ± 0.054 | 2.71 ± 0.038
HPKLIKNKSGKIFVETK [FAS1] | 2.3 ± 0.067 | 2.76 ± 0.067 | 2.47 ± 0.13 | 2.67 ± 0.1
WYLILSIISSKTSCVVE [RGR1] | 1.46 ± 0.13 | 1.23 ± 0.12 | 1.58 ± 0.26 | 1.18 ± 0.1
YSIEMKPYSGKLLKVCL [ECM29] | 2.62 ± 0.077 | 2.33 ± 0.098 | 2.51 ± 0.076 | 2.83 ± 0.069
RQEVTKFAKANIGYVMG [RPN4] | 1.2 ± 0.15 | 1.31 ± 0.11 | 1.21 ± 0.18 | 1.14 ± 0.065
GRLLRAMFEICLKRGWG [BRR2] | 1.75 ± 0.11 | 1.59 ± 0.091 | 1.76 ± 0.12 | 1.81 ± 0.077
LSCQYDNTVRTSANGIV [RPO31] | 1.32 ± 0.19 | 1.26 ± 0.14 |  | 
ISSLFTITTILILGLNT [YML103C/NUP188] | 1.51 ± 0.078 | 1.75 ± 0.094 | 1.46 ± 0.2 | 1.75 ± 0.065
QEVTNEAPFLTSGTSSE [GAL11] | 3.35 ± 0.079 | 3.35 ± 0.08 | 3.42 ± 0.067 | 3.13 ± 0.073
TIAKQVLNGQKIVVVRA [RPL16B] | 3.04 ± 0.19 | 2.9 ± 0.13 |  | 2.6 ± 0.14

Sequence | protein stability index (doa10∆) | protein stability index (pdr5∆) | protein stability index (san1∆) | protein stability index (ubr1∆)
IHTQLSEIKQQINKAQI [YJL039C/NUP192] | 2.73 ± 0.12 | 2.8 ± 0.18 | 2.81 ± 0.13 | 3.12 ± 0.2
SSLEARYFFYLSKINAI [RPN3] | 1.74 ± 0.05 | 2.17 ± 0.064 | 1.95 ± 0.1 | 1.75 ± 0.042
LKKNNYNSFPHSNLEKI [SIR4] | 3.06 ± 0.099 | 3.27 ± 0.094 | 3.19 ± 0.053 | 3.17 ± 0.054
IRKLLEKINRMIIFLKN [CSI1] | 1.81 ± 0.079 | 1.5 ± 0.063 | 1.31 ± 0.11 | 1.19 ± 0.041
SGGNNTATIINNESSDD [PCI8] | 2.63 ± 0.091 | 2.65 ± 0.087 | 2.69 ± 0.092 | 3.17 ± 0.055
SKYLIKQIDIPNFNVEI [ECM29] | 1.57 ± 0.069 | 2.01 ± 0.091 | 2.57 ± 0.072 | 2.39 ± 0.059
SLNYKFTTNKSKDVSRL [SRP21] | 3.13 ± 0.12 | 3.04 ± 0.088 | 3.08 ± 0.081 | 3.14 ± 0.072
NAGTDIVMEDHGVLQGT [MED1] | 3.11 ± 0.072 | 3.06 ± 0.1 | 3.08 ± 0.085 | 3 ± 0.067
NALWILVDLVSHFSPDI [ITC1] | 1.55 ± 0.07 | 1.56 ± 0.079 | 1.67 ± 0.11 | 1.95 ± 0.051
LKKVQQQQQAAALANAN [SWI1] | 1.83 ± 0.063 | 2.45 ± 0.081 | 2.1 ± 0.073 | 1.78 ± 0.064
VDFACCTNLTNRTLYEL [GRR1] | 2.72 ± 0.061 | 2.71 ± 0.061 | 2.26 ± 0.06 | 2.73 ± 0.044
SNIDYQTLLANSDHAKF [SNF2] | 2.24 ± 0.084 | 2.28 ± 0.093 | 2.32 ± 0.11 | 2.53 ± 0.075
LLFNNDFPLLKVLAAHT [RRP40] | 1.23 ± 0.13 | 1.25 ± 0.11 | 1.18 ± 0.12 | 1.09 ± 0.058
FFYLRISKKLQFSYLSS [PCI8] | 1.22 ± 0.076 | 1.24 ± 0.059 | 1.24 ± 0.11 | 1.33 ± 0.044
RMRVSVLEKYEVIGYIA [SSN3] | 1.4 ± 0.14 | 1.56 ± 0.2 | 1.09 ± 0.27 | 1.15 ± 0.049
SLQDNSAAINNEDARAI [RPN4] | 3.12 ± 0.078 | 3.19 ± 0.057 | 2.94 ± 0.055 | 3.18 ± 0.05
NEIIRSLSDEVMRNEIR [SIR4] | 2.64 ± 0.058 | 2.1 ± 0.048 | 2.52 ± 0.068 | 2.39 ± 0.049
NVFTPEISSQIEILVKD [RRI2] | 1.65 ± 0.1 | 2.02 ± 0.12 | 2.65 ± 0.15 | 1.3 ± 0.066
KSEFDDLSLNIHPIPSV [YMR129W/POM152] | 2.64 ± 0.043 | 2.92 ± 0.039 | 2.75 ± 0.032 | 2.76 ± 0.032
KRHSYAQSSHIRAIRKV [RPS1A] | 2.399 ± 0.019 | 2.336 ± 0.017 | 2.423 ± 0.022 | 2.446 ± 0.015
LKVLSEHLDCMNFISKE [PCI8] | 2.72 ± 0.09 | 3.14 ± 0.099 | 3.2 ± 0.047 | 3.03 ± 0.061
TDLRLSTNGLGMCQLYF [SNU114] | 3.48 ± 0.12 | 3.52 ± 0.13 | 2.98 ± 0.23 | 3.08 ± 0.21
